Results published in US20230067757A1 (NOVAROCK BIOTHERAPEUTICS, published 2023).
Positions count from the first letter of the chain named.

B1: Ms2 (antibody, V domains shown)
VH: QVQLKESGPGLVAPSQSLSITCTVSGFSLTSYGVHWVRQPPGKGLEWLGVIWAGGSTNYNSALMSRLSISKDNSKSQVFLKMNSLQTDDTAMYYCARDFTTATGFDYWGQGTTLTVSS
VL: DIVMTQSPSSLSVSAGEKVTMSCKSSQSLLNSGNQKNYLAWYQQKPGQPPKLLIYGASTRESGVPDRFTGSGSGTDFTLTISSVQAEDLAVYYCQNDHSYPFTFGSGTKLEIK
B2: Hu-2 (antibody, V domains shown)
VH: QLRLQESGPGLVKPSETLSLTCAVSGGSISSSRSYWGWIRQPPGKGLELIGSIYYSGSTYYNPSLKSRVTISVDTSKNQFSLKLTSVTATDTAVYYCARQTLRYFDWLSPFDYWGQGTLVTVSS
VL: EIVMTQSPATLSLSPGERATLSCRASQSVRSNYLSWYQQKPGQAPRLLIYGTSTRATGIPARFSGSGSGTDFTLTISSLQPEDFAVYFCQQDYNLPITFGQGTRLEIK
B3: Ms4 (antibody, V domains shown)
VH: EVQLQQSGPELEKPGASVKISCKASGYSFTGYNMNWVKQSNGKSLEWIGNIDPYYGGTRYNQKFKGKATLTVDRSSSTAYMQLKSLTSEDSAVYYCARLGLGNAMDYWGQGTSVTVSS
VL: B1 VL with S10F, S12T, S14T, N37S, A40T, G56W, H98Y, S99Y, K109E
B4: Ms11 (antibody, V domains shown)
VH: QVQLQQSGAELVKPGASVKMSCKAFGYTFTTYSIEWMKQNHGKSLEWIGNFRPYNDDTKCNEKFKGKAKLTVEKSSSTVYLELSRLTSDDSAVYYCARGSYGNSFAYWGQGTLVTVSA
VL: B1 VL
B5: Hu-3 (antibody, V domains shown)
VH: QLQLQESGPGLVKPSETLSLTCTVSDGPISSSRYYWGWIRQPPGKGLEWIGSFHYSGSTYYNPSLKSRVTISADTSKNQFSLKLSSVTAADTAVYYCARLVLRYFDWLGFFDLWGRGTLVTVSS
VL: B2 VL with T10I, T20A, N32S, F88Y, I107F
B6: Hu-9 (antibody, V domains shown)
VH: EVQLLESGGGLVQPGGSLRLSCAASGFTFSSFAMTWVRQAPGKGLEWVSSLSGSGRSTYYAASMKGRFTISRDNSKNTLYLQMNSLRAEDTAIYYCAKSLSYYHYYFDYWGQGTLVTVTS
VL: DIQLTQSPSFLSASVGDRVPITCRASQGISNFLAWYQQKPGKAPELLIHSASTLQSGVPSRFSGSGSGTEFTLTISNLQPQDFATYYCQQVNSYPLTFGGGTKVEIK
B7: Hu-18 (antibody, V domains shown)
VH: QVQLVQSGAEVKKPGASVKVSCRVSGYTLSALSMYWVRQAPGKGLEWMGGFDPEDGKTIYAQKFQGRVTMTEDTSTGTAYMELSSLRSEDTAIYYCATTLRYFDWNYWGQGTPVTVSS
VL: DIVMTQTPLSSPVTLGQPASISCRSSQSLVHSDGNTYLSWLQQRPGQPPRLLIYKVSKRFSGVPDRFSGSGAGTDFTLKISRVEAEDVGVYYCTQGTQFPRTFGQGTKVEIK
notes: Human V regions (Trianni mice)
B8: Ms16 (antibody, V domains shown)
VH: QVQLQQSGAELVRPGTSVKVSCKASGYAFTNYLIEWIKQRPGQGLEWIGVINPGSGGTNYNEKLKGKATLTADKSSSTAYMQLSSLTSGDSAVYFCARYVKGNALDYWGQGTSVTVSS
VL: DIVMTQSPSSLTVTAGEKVTLSCKSSQSLFNSGNQKNYLTWYQQKPGQPPKLLIYWASTRESGVPDRFTGSGSGTDFTLTISSVQAEDLAIYYCQNSYSFPLTFGAGTKLELT
B9: Ms14 (antibody, V domains shown)
VH: EVQLQQSGPELVKPGASVKMSCKASGYTFTRYIIHWVKQKPGQGLEWIGYFNPYNDDSKNNEKFKGKATLTSDKSSSTAYMEISSLTSEDSAVYYCAKLRQERIAYWGQGTLVTVSA
VL: DIQMNQSPSSLSASLGDTITITCHVSQNIDVWLSWYQQKPGNIPKLLIYKASNLHTGVPSRFSGSGSGTGFTLTISSLQPEDIATYYCQQGQSYPLTFGAGTKLELK
B10: Hu-6 (antibody, V domains shown)
VH: B5 VH with L2M, Q5R, D26N, N62K, F80L, K83E, F110Y
VL: B2 VL with I2F, V29I, T52A, G58A, F88Y
B11: Hu-17 (antibody, V domains shown)
VH: B7 VH with K13R, S30T, K57E, R87K, I93V, T99R
VL: B7 VL
notes: as for B7

These binders were tested against T1, human claudin 18 isoform 1 (claudin 18.1) (human, UniProt P56856 1-261) (assay: immunofluorescence imaging on CHO cells expressing human CLDN18.1, antibody at 10 µg/ml).
T1 construct: Recombinant on transfected CHO cells (CHO-CLDN18.1); also called CLDN18.1
T1 sequence (P56856 whole entry, canonical isoform): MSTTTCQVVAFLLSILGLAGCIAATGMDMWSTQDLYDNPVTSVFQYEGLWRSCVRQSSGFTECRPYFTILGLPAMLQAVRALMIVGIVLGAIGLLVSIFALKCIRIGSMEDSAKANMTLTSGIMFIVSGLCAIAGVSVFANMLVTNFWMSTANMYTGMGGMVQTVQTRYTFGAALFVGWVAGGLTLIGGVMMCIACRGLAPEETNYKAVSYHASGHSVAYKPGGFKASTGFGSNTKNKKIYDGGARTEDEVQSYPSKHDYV
Experimental: (§1) The specific cellular binding affinity of anti-Claudin18.2 antibodies was tested on CHO-CLDN18.2 (transfected CHO cell expressing recombinant human CLDN18.2) and CHO-CLDN18.1 (transfected CHO cell expressing recombinant human CLDN18.1) cells. The cells were plated in complete media containing F12 with 10% FBS, then incubated overnight at 37° C., anti-Claudin18.2 antibodies were serial diluted and added to the assay plates, incubated at 4° C. for 2 hours, followed by fixing cells and further staining the cells for 30 minutes with Alexa Fluor® 488 Goat Anti-Human IgG (H+L) secondary antibody, invitrogen Cat #A-11013 for detection. The binding was assessed by imaging the cells and quantifying the fluorescence intensity using a Biotek Cytation.
B1: no binding (tested: 10 µg/ml). B2: no binding (tested: 10 µg/ml). B3: no binding (tested: 10 µg/ml). B4: no binding (tested: 10 µg/ml). B5: no binding (tested: 10 µg/ml). B6: no binding (tested: 10 µg/ml).

These binders were tested against T2, human claudin 18 isoform 2 (claudin 18.2) (human) (assay: immunofluorescence imaging, CHO-CLDN18.2 cells; low end tied to Hu-18 by Table 6 (0.8)).
T2 construct: Recombinant on transfected CHO cells (CHO-CLDN18.2) or endogenous on tumor cell lines PATU8988S, NUGC-4, KATOIII; the cell line is named under assay; also called CLDN18.2
Experimental: as §1
For B7, the EC50 was 0.77 nM.

The binders below were run against T2, human claudin 18 isoform 2 (claudin …) (assay: immunofluorescence imaging, CHO-CLDN18.2 cells (FIG. 3B); Table 5 prints 3.0).
Experimental: as §1
B1 showed an EC50 of 2.8 nM.

Each binder was assayed against T2, human claudin 18 isoform 2 (claudin …) (assay: imaging, PATU8988S cells (endogenous CLDN18.2); ++++ = EC50 less than 2 nM).
With B3 the EC50 was < 2 nM. In the case of B8, the EC50 is reported as < 2 nM.

The binders below were run against T2, human claudin 18 isoform 2 (claudin …) (assay: cell-based or functional assay).
B1 was tested, and the “endocytosis derived cell toxicity EC50, CHO-18.2 cells (anti-IgG Fc-MMAF co-internalization)” value (“endocytosis derived cell toxicity EC50” for short) was 2.55 nM. For B3, the “endocytosis derived cell toxicity EC50” value was 0.98 nM. In the case of B4, the “endocytosis derived cell toxicity EC50” value is reported as 1.3 nM. With B9 the “endocytosis derived cell toxicity EC50” value was 1.02 nM. In the case of B8, the “endocytosis derived cell toxicity EC50” value is reported as 1 nM.

Target: T2, human claudin 18 isoform 2 (claudin …)
Experiment: cell-based or functional assay
Remark: another data set of the same source
With B2 the “ADCC EC50, CHO-18.2 target cells (mouse FcγRIV reporter bioluminescence)” value (“ADCC EC50, CHO-18.2 target cells” for short) was 3.51 nM. In the case of B5, the “ADCC EC50, CHO-18.2 target cells” value is reported as 3.11 nM. B10 was tested, and the “ADCC EC50, CHO-18.2 target cells” value was 4.8 nM. For B6, the “ADCC EC50, CHO-18.2 target cells” value was 1.1 nM.

The binders below were run against T2, human claudin 18 isoform 2 (claudin …) (assay: imaging, PATU8988S cells (endogenous CLDN18.2); ++ = EC50 between 20 nM and 100 nM).
Work on B1 yielded an EC50 of 20 to 100 nM. For B4, the EC50 was 20 to 100 nM. Work on B9 yielded an EC50 of 20 to 100 nM.

These binders were tested against T1, human claudin 18 isoform 1 (claudin …) (assay: imaging, CHO-CLDN18.1 cells, single concentration (FIG. 3A)).
Experimental: as §1
B9: no binding (tested: 10 µg/ml). B8: no binding (tested: 10 µg/ml).

Target: T2, human claudin 18 isoform 2 (claudin …)
Experiment: imaging, PATU8988S cells (endogenous CLDN18.2); ++++ = EC50 less than 2 nM
Remark: another data set of the same source
Experimental: (§2) Tumor cells were plated in complete media containing RPMI1640 with +10% FBS, then incubated overnight at 37° C., Claudin18.2 antibodies were serial diluted and added to the assay plates, incubated at 4° C. for 2 hours, followed by fixing cells and further staining the cells for 30 minutes with Alexa Fluor® 488 Goat Anti-Human IgG (H+L) secondary antibody (invitrogen Cat #A-11013) for detection. The binding was assessed by imaging the cells and quantifying the fluorescence intensity using a Biotek Cytation.
B6 was tested, and the EC50 was < 2 nM.

Each binder was assayed against T2, human claudin 18 isoform 2 (claudin …) (assay: immunofluorescence imaging, CHO-CLDN18.2 cells (FIG. 3C); Table 5 prints 0.8).
Experimental: as §1
With B3 the EC50 was 0.75 nM.

Each binder was assayed against T2, human claudin 18 isoform 2 (claudin …) (assay: imaging, PATU8988S cells (endogenous CLDN18.2); +++ = EC50 between 2 nM and 20 nM).
Experimental: as §2
Work on B2 yielded an EC50 of 2 to 20 nM. Binder B5 has an EC50 of 2 to 20 nM. B10 was tested, and the EC50 was 2 to 20 nM.

Each binder was assayed against T2, human claudin 18 isoform 2 (claudin …) (assay: immunofluorescence imaging, CHO-CLDN18.2 cells (FIG. 3C); Table 6 prints 1.3).
Experimental: as §1
Work on B5 yielded an EC50 of 1.34 nM.

The binders below were run against T2, human claudin 18 isoform 2 (claudin …) (assay: immunofluorescence imaging, CHO-CLDN18.2 cells, serial dilution).
Experimental: as §1
B1 showed an EC50 of 3 nM. With B2 the EC50 was 1.5 nM. B3 was tested, and the EC50 was 0.8 nM. Binder B4 has an EC50 of 3.3 nM. B5 was tested, and the EC50 was 1.3 nM. B9 showed an EC50 of 1.1 nM. In the case of B8, the EC50 is reported as 0.8 nM. B10 showed an EC50 of 1.5 nM. With B6 the EC50 was 1.1 nM. For B11, the EC50 was 6.2 nM. B7 showed an EC50 of 0.8 nM.

The binders below were run against T1, human claudin 18 isoform 1 (claudin …) (assay: imaging, CHO-CLDN18.1 cells, dose titration).
Experimental: as §1
B11: no binding (tested: 133.4 nM). B7: no binding (tested: 133.4 nM).

Target: T2, human claudin 18 isoform 2 (claudin …)
Experiment: cell-based or functional assay
Remark: another data set of the same source
In the case of B2, the “endocytosis derived cell toxicity EC50” value is reported as 1.43 nM. For B5, the “endocytosis derived cell toxicity EC50” value was 1.23 nM. In the case of B10, the “endocytosis derived cell toxicity EC50” value is reported as 1.69 nM. In the case of B6, the “endocytosis derived cell toxicity EC50” value is reported as 0.85 nM.
